# Measurements: patent US10131702B2, “Glucagon-GLP-1-GIP triple agonist compounds” (priority 2013, dated 2018)
# Read-outs that look alike come from different tables or passages of the source. Numbered stars: 1 amine (or outer) side, 2 acyl side, 3 side chain; on linkers, the order of the positions; unused ones are H or OH. Square brackets hold non-standard residues; d marks the D form. Side chains are listed from the residue outwards. Peptide text beside a SMILES is read from it. * marks the point of attachment. C18 diacid = O=C(O)CCCCCCCCCCCCCCCCC(=O)*; γGlu = O=C(O)[C@H](CCC(=O)[*:2])N[*:1]; Stearoyl = CCCCCCCCCCCCCCCCCC(=O)*; Aib = CC(C)(N)C(=O)O
# T1: human GIP R (Homo sapiens, UniProt P48546)
# T1 construct: expressed in transfected cells
# T1 sequence (P48546 22-466): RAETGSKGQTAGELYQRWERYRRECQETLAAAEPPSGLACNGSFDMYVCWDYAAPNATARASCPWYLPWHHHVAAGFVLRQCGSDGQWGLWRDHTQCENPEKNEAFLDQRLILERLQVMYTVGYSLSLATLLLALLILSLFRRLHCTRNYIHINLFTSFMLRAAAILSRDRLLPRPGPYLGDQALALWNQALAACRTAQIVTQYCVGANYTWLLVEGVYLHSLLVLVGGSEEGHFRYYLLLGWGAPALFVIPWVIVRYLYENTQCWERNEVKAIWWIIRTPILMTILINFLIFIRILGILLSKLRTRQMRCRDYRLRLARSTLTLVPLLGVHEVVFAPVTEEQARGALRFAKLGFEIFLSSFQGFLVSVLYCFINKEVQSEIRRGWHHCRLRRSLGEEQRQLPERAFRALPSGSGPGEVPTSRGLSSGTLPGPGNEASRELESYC
# T2: human GIP receptor (human, UniProt P48546 22-466)
# T2 sequence: T1 sequence (P48546 22-466)
# B1: Compound 42 (peptide)
# peptide: YXQGTFTSDYSIALDKKAQRAFVNWLVAXKPSSGAPPPS
# modifications: X at 2 and 29 = Aib; Lys 17 as K(Octadecanoyl-isoGlu-Peg3-Peg3); C-terminal amide (-NH2)
# B2: Compound 43 (peptide)
# peptide: B1 peptide
# modifications: X at 2 and 29 = Aib; Lys 17 as K(Octadecanoyl-Dapa-Peg3-Peg3); C-terminal amide (-NH2)
# B3: Compound 24 (peptide)
# peptide: YAQGTFTSDYSIYLEKKAAKEFVEWLLSA
# HELM: PEPTIDE1{Y.[Aib].Q.G.T.F.T.S.D.Y.S.I.Y.L.E.K.K.A.A.K.E.F.V.E.W.L.L.S.A.[am]}|PEPTIDE2{[CCCCCCCCCCCCCCCC(=O)[*:2]].[gGlu]}$PEPTIDE1,PEPTIDE2,16:R3-2:R2$$$V2.0
# SMILES: CCCCCCCCCCCCCCCC(=O)N[C@@H](CCC(=O)NCCCC[C@H](NC(=O)[C@H](CCC(=O)O)NC(=O)[C@H](CC(C)C)NC(=O)[C@H](Cc1ccc(O)cc1)NC(=O)[C@@H](NC(=O)[C@H](CO)NC(=O)[C@H](Cc1ccc(O)cc1)NC(=O)[C@H](CC(=O)O)NC(=O)[C@H](CO)NC(=O)[C@@H](NC(=O)[C@H](Cc1ccccc1)NC(=O)[C@@H](NC(=O)CNC(=O)[C@H](CCC(N)=O)NC(=O)C(C)(C)NC(=O)[C@@H](N)Cc1ccc(O)cc1)[C@@H](C)O)[C@@H](C)O)[C@@H](C)CC)C(=O)N[C@@H](CCCCN)C(=O)N[C@@H](C)C(=O)N[C@@H](C)C(=O)N[C@@H](CCCCN)C(=O)N[C@@H](CCC(=O)O)C(=O)N[C@@H](Cc1ccccc1)C(=O)N[C@H](C(=O)N[C@@H](CCC(=O)O)C(=O)N[C@@H](Cc1c[nH]c2ccccc12)C(=O)N[C@@H](CC(C)C)C(=O)N[C@@H](CC(C)C)C(=O)N[C@@H](CO)C(=O)N[C@@H](C)C(N)=O)C(C)C)C(=O)O
# B4: Compound 25 (peptide)
# peptide: YAQGTFTSDYSKYLEKKAAKEFVEWLLSA
# HELM: PEPTIDE1{Y.[Aib].Q.G.T.F.T.S.D.Y.S.K.Y.L.E.K.K.A.A.K.E.F.V.E.W.L.L.S.A.[am]}|PEPTIDE2{[CCCCCCCCCCCCCCCC(=O)[*:2]].[gGlu]}$PEPTIDE1,PEPTIDE2,12:R3-2:R2$$$V2.0
# SMILES: CCCCCCCCCCCCCCCC(=O)N[C@@H](CCC(=O)NCCCC[C@H](NC(=O)[C@H](CO)NC(=O)[C@H](Cc1ccc(O)cc1)NC(=O)[C@H](CC(=O)O)NC(=O)[C@H](CO)NC(=O)[C@@H](NC(=O)[C@H](Cc1ccccc1)NC(=O)[C@@H](NC(=O)CNC(=O)[C@H](CCC(N)=O)NC(=O)C(C)(C)NC(=O)[C@@H](N)Cc1ccc(O)cc1)[C@@H](C)O)[C@@H](C)O)C(=O)N[C@@H](Cc1ccc(O)cc1)C(=O)N[C@@H](CC(C)C)C(=O)N[C@@H](CCC(=O)O)C(=O)N[C@@H](CCCCN)C(=O)N[C@@H](CCCCN)C(=O)N[C@@H](C)C(=O)N[C@@H](C)C(=O)N[C@@H](CCCCN)C(=O)N[C@@H](CCC(=O)O)C(=O)N[C@@H](Cc1ccccc1)C(=O)N[C@H](C(=O)N[C@@H](CCC(=O)O)C(=O)N[C@@H](Cc1c[nH]c2ccccc12)C(=O)N[C@@H](CC(C)C)C(=O)N[C@@H](CC(C)C)C(=O)N[C@@H](CO)C(=O)N[C@@H](C)C(N)=O)C(C)C)C(=O)O
# Tests used:
# [1] = molecular target: human glucagon receptor (human) (UniProt P47871); test: cell-based or functional assay
# human glucagon receptor (human), sequence (P47871 26-477): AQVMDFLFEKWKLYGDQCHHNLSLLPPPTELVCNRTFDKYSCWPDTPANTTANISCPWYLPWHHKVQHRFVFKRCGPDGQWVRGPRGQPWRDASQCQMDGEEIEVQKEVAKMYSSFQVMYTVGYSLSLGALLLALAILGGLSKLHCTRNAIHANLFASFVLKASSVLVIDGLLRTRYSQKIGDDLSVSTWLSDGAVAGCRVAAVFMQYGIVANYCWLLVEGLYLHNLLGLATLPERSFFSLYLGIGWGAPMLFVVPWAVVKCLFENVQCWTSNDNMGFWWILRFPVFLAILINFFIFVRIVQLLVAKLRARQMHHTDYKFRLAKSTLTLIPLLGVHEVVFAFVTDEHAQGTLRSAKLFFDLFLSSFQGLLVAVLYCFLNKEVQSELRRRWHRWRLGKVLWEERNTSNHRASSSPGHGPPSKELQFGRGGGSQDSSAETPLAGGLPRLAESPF
# [2] = molecular target: human GIP receptor (human) (UniProt P48546); test: cell-based or functional assay
# [3] = molecular target: T1, human GIP R; test: cAMP induction in HEK293 cells expressing human GIP R (AlphaScreen cAMP kit); assay type: cell-based; conditions: read-out: GIP R (EC50 in nM)
# [4] = molecular target: T3, human GLP-1 R (Homo sapiens, UniProt P43220); test: cAMP induction in HEK293 cells expressing human GLP-1 R (AlphaScreen cAMP kit); assay type: cell-based; conditions: average EC50, cAMP, HEK293 cells expressing human GLP-1 R, read-out: GLP1 R (EC50 in nM)
# T3 construct: expressed in transfected cells
# T3 sequence (P43220 24-463): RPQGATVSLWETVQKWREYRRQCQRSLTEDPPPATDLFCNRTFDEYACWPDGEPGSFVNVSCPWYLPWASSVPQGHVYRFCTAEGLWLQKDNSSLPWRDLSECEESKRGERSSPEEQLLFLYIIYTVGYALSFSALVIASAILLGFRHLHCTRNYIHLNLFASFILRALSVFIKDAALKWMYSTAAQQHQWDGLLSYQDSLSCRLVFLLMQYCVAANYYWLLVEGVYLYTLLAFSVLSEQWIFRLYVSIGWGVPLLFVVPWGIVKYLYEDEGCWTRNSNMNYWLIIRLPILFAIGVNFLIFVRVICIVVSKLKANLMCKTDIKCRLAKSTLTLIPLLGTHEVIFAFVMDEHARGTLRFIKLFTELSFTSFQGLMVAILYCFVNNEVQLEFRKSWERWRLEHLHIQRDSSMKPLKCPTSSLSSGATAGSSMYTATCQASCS
# Procedure: Briefly, HEK293 cells expressing the human GIP R, GLP-1 R or GCG R (stable cell lines generated through transfection of the cDNA for human GIP R, GLP-1 R or GCG R and selection of stable clones) were seeded at 30,000 cells/well in 96-well microtiter plates coated with 0.01% poly-L-lysine, and grown for 1 day in culture in 200 μl growth medium (DMEM, 10% FCS, Penicillin (100 IU/ml), Streptomycin (100 μg/ml)). On the day of analysis, growth medium was removed and the cells were washed once with 150 μl Tyrode's buffer (Tyrode's Salts (9.6 g/l), 10 mM HEPES, pH 7.4). […] The Assay buffer was removed and cells are lysed in 80 μl Lysis buffer (0.1% w/v BSA, 5 mM HEPES, 0.3% v/v Tween-20) per well. From each well 10 μl of lysed cells were transferred to a 384-well plate and mixed with 15 μl bead-mix (1 Unit/15 μl anti-cAMP Acceptor Beads, 1 Unit/15 μl Donor Beads, and 1 Unit/15 μl Biotinylated cAMP in Assay Buffer). The plates were mixed and incubated in the dark for an hour at room temperature before measuring using an Envision™ plate reader (Perkin-Elmer).
# The resulting cAMP curves were plotted as absolute cAMP concentrations (nM) over log (test compound concentration) and analyzed using the curve fitting program XLfit.
# Parameters calculated to describe both the potency as well as the agonistic activity of each test compound on the receptors were:
# EC50, a concentration resulting in a half-maximal elevation of cAMP levels, reflecting the potency of the test compound.
# [5] = in vivo; parameters: species or system C57BL/6J mice; conditions: male, C57BL/6J, mouse, iv, 200 nmol/kg
# Source text: Pharmacokinetics of Selected Compounds in Mice Method C57BL/6J mice (males with a body weight of approximately 25 g) were given a single intravenous (i.v.) bolus of each peptide to be tested. […] Blood samples were drawn by sublingual bleeding. The dosing vehicle was a phosphate buffer containing mannitol (pH 7.5). At each sampling time point, samples from two mice were drawn, i.e. 16 mice were included for each compound. The mice were euthanized immediately after blood sampling by cervical dislocation. Plasma samples were analyzed after solid phase extraction (SPE) or precipitation by liquid chromatography mass spectrometry (LC-MS/MS). Mean plasma concentrations were used for calculation of the pharmacokinetic parameters using the non-compartmental approach in Phoenix WinNonlin 6.3. Plasma terminal elimination half-life (T½) was determined as […] where λz is the magnitude of the slope of the log linear regression of the log concentration versus time profile during the terminal phase.
# [6] = molecular target: T4, human GCG R (Homo sapiens, UniProt P47871); test: cAMP induction in HEK293 cells expressing human GCG R (AlphaScreen cAMP kit); assay type: cell-based; conditions: Table 2; average EC50, cAMP, HEK293 cells expressing human GCG R; read-out: GCG R (EC50 in nM)
# T4 construct: expressed in transfected cells
# T4 sequence (P47871 26-477): as the sequence (P47871 26-477) above
# [7] = molecular target: human glucagon-like peptide 1 receptor (human) (UniProt P43220); test: cell-based or functional assay
# human glucagon-like peptide 1 receptor (human), sequence (P43220 24-463): as the sequence (P43220 24-463) above
# [8] = molecular target: T5, human glucagon receptor (human, UniProt P47871 26-477); test: cell-based or functional assay
# T5 sequence (P47871 26-477): as the sequence (P47871 26-477) above
# [9] = molecular target: T2, human GIP receptor; test: cell-based or functional assay
# [10] = molecular target: T6, human glucagon-like peptide 1 receptor (human, UniProt P43220 24-463); test: cell-based or functional assay
# [11] = molecular target: T5, human glucagon receptor; test: cell-based or functional assay; remark: listed apart in the source
# [12] = molecular target: T2, human GIP receptor; test: cell-based or functional assay; remark: listed apart in the source
# [13] = molecular target: T6, human glucagon-like peptide 1 receptor; test: cell-based or functional assay; remark: listed apart in the source
# [14] = Table 2b (most comprehensive data), average EC50, cAMP
# [15] = Table 2b (most comprehensive data)
molecule,measurement,setting,value
Exendin-4 (from UniProt P26349 48-86) (peptide),EC50 (cAMP induction),[1],> 10 nM
same,EC50 (cAMP induction),[2],0.004 nM
"CCCCCCCCCCCCCCCC(=O)N[C@@H](CCC(=O)NCCCC[C@H](NC(=O)[C@H](CCC(=O)O)NC(=O)[C@H](CC(=O)O)NC(=O)[C@H](CC(C)C)NC(=O)[C@H](Cc1ccc(O)cc1)NC(=O)[C@@H](NC(=O)[C@H](CO)NC(=O)[C@H](Cc1ccc(O)cc1)NC(=O)[C@H](CC(=O)O)NC(=O)[C@H](CO)NC(=O)[C@@H](NC(=O)[C@H](Cc1ccccc1)NC(=O)[C@@H](NC(=O)CNC(=O)[C@H](CCC(N)=O)NC(=O)C(C)(C)NC(=O)[C@@H](N)Cc1ccc(O)cc1)[C@@H](C)O)[C@@H](C)O)[C@@H](C)CC)C(=O)N[C@@H](C)C(=O)N[C@@H](C)C(=O)N[C@@H](Cc1c[nH]cn1)C(=O)N[C@@H](CC(=O)O)C(=O)N[C@@H](Cc1ccccc1)C(=O)N[C@H](C(=O)N[C@@H](CCC(=O)O)C(=O)N[C@@H](Cc1c[nH]c2ccccc12)C(=O)N[C@@H](CC(C)C)C(=O)N[C@@H](CC(C)C)C(=O)N[C@@H](CO)C(=O)N[C@@H](C)C(N)=O)C(C)C)C(=O)O [Compound 28] (HELM PEPTIDE1{Y.[Aib].Q.G.T.F.T.S.D.Y.S.I.Y.L.D.E.K.A.A.H.D.F.V.E.W.L.L.S.A.[am]}|PEPTIDE2{[CCCCCCCCCCCCCCCC(=O)[*:2]].[gGlu]}$PEPTIDE1,PEPTIDE2,17:R3-2:R2$$$V2.0)",EC50,"[3]; Table 2, average EC50, cAMP",0.054 nM
same,EC50,[3]; [14],0.058 nM
same,EC50,[4]; Table 2,0.058 nM
same,EC50,[4]; [15],0.16 nM
same,half-life,[5],7.8 h
same,EC50,[6],0.16 nM
"CCCCCCCCCCCCCCCC(=O)N[C@@H](CCC(=O)NCCCC[C@H](NC(=O)[C@H](CCCCN)NC(=O)[C@H](CCC(=O)O)NC(=O)[C@H](CC(C)C)NC(=O)[C@H](Cc1ccc(O)cc1)NC(=O)[C@@H](NC(=O)[C@H](CO)NC(=O)[C@H](Cc1ccc(O)cc1)NC(=O)[C@H](CC(=O)O)NC(=O)[C@H](CO)NC(=O)[C@@H](NC(=O)[C@H](Cc1ccccc1)NC(=O)[C@@H](NC(=O)CNC(=O)[C@H](CCC(N)=O)NC(=O)C(C)(C)NC(=O)[C@@H](N)Cc1ccc(O)cc1)[C@@H](C)O)[C@@H](C)O)[C@@H](C)CC)C(=O)N[C@@H](C)C(=O)N[C@@H](C)C(=O)N[C@@H](CCCCN)C(=O)N[C@@H](CCC(=O)O)C(=O)N[C@@H](Cc1ccccc1)C(=O)N[C@H](C(=O)N[C@@H](CCC(=O)O)C(=O)N[C@@H](Cc1c[nH]c2ccccc12)C(=O)N[C@@H](CC(C)C)C(=O)N[C@@H](CC(C)C)C(=O)N[C@@H](CO)C(=O)N[C@@H](C)C(=O)NCC(=O)N1CCC[C@H]1C(=O)N[C@@H](CO)C(=O)N[C@@H](CO)C(=O)NCC(=O)N[C@@H](C)C(=O)N1CCC[C@H]1C(=O)N1CCC[C@H]1C(=O)N1CCC[C@H]1C(=O)N[C@@H](CO)C(N)=O)C(C)C)C(=O)O [Compound 32] (HELM PEPTIDE1{Y.[Aib].Q.G.T.F.T.S.D.Y.S.I.Y.L.E.K.K.A.A.K.E.F.V.E.W.L.L.S.A.G.P.S.S.G.A.P.P.P.S.[am]}|PEPTIDE2{[CCCCCCCCCCCCCCCC(=O)[*:2]].[gGlu]}$PEPTIDE1,PEPTIDE2,17:R3-2:R2$$$V2.0)",EC50,"[3]; Table 2, average EC50, cAMP",0.044 nM
same,EC50,[3]; [14],0.015 nM
same,EC50,[4]; Table 2,0.015 nM
same,EC50,[4]; [15],0.15 nM
same,half-life,[5],4.1 h
same,EC50,[6],0.15 nM
B1,EC50 (cAMP induction),[7],0.036 nM
same,EC50 (cAMP induction),[1],0.032 nM
same,EC50 (cAMP induction),[2],0.015 nM
B2,EC50 (cAMP induction),[7],0.014 nM
same,EC50 (cAMP induction),[1],0.036 nM
same,EC50 (cAMP induction),[2],0.0098 nM
B3,EC50 (cAMP induction),[8],0.28 nM
same,EC50 (cAMP induction),[9],0.1 nM
same,EC50 (cAMP induction),[10],0.091 nM
same,EC50 (cAMP induction),[11],0.28 nM
same,EC50 (cAMP induction),[12],0.1 nM
same,EC50 (cAMP induction),[13],0.091 nM
H-Y[Aib]QGTFTSDYSIYLEKK([Peg3-Peg3-γGlu-C18 diacid])AQRAFVEWLLRA-NH2 [Compound 51],EC50 (cAMP induction),[7],0.026 nM
same,EC50 (cAMP induction),[1],1.4 nM
same,EC50 (cAMP induction),[2],0.033 nM
H-Y[Aib]QGTFTSDLSIALEKK([Peg3-Peg3-γGlu-Stearoyl])AQRAFVEWLLAQK-NH2 [Compound 48],EC50 (cAMP induction),[7],0.013 nM
same,EC50 (cAMP induction),[1],0.19 nM
same,EC50 (cAMP induction),[2],0.013 nM
B4,EC50 (cAMP induction),[8],0.3 nM
same,EC50 (cAMP induction),[9],0.25 nM
same,EC50 (cAMP induction),[10],0.28 nM
same,EC50 (cAMP induction),[11],0.3 nM
same,EC50 (cAMP induction),[12],0.25 nM
same,EC50 (cAMP induction),[13],0.28 nM
